Laboratory results taken from patent publication US20230071609A1 (Genentech, published 2023).
One block for each binder: values may come before it.

Legend:
[1] = biological target: T1, iAPOL1-G0 in podocytes (EIK variant, doxycycline-inducible, in APOL1 KO podocytes) (human, UniProt O14791 29-398); assay: immunoelectron microscopy, APOL1-G0 podocytes
T1 construct: Stably re-expressed untagged APOL1 isoform A in APOL1 KO clone 89401-3; also called iAPOL1-G0 podocytes; iAPOL1 podocytes
T1 chain: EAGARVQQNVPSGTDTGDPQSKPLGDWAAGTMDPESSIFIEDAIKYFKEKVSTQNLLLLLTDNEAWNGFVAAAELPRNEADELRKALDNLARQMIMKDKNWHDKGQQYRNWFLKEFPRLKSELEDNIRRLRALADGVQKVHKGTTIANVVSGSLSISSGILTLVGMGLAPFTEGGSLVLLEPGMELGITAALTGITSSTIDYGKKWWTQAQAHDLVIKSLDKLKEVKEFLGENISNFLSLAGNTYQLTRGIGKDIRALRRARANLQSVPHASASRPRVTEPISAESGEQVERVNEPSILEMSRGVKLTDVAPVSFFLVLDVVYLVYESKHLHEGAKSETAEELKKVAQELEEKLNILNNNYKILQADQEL
Description: Scale bars are 200 nm. APOL1 appears more closely associated with the inner ER membrane face than does the luminal KDEL.
For iEM, 1.4×10⁶ HEK-293 cells in T25 flasks were reverse transfected with 5.4 μg APOL1 or APOL2 cDNA with 12 μl Fugene 6 (Roche 11814443001) for 50 h or 65 h, respectively. Podocytes and transiently transfected HEK-293 cells were fixed with 4% paraformaldehyde in 0.1M phosphate buffer (PB), pH 7.4, for 2 h at room temperature, then overnight at 4° C., and with 2% paraformaldehyde, 0.2% glutaraldehyde in 0.1 M phosphate buffer (PB), pH 7.4, for 2 h at room temperature, respectively. Fixations were continued in 1% PFA in 0.1 M PB at 4° C. for several days. […] For quantitation, random images of APOL1/2 expressing HEK-293 cells and podocytes were made. The positions of at least 50 gold particles per antibody were scored as either (i) OMF: overlapping on outer ER membrane surface and cytosol, or located in the cytosol at a distance ≤15 nm between outer ER membrane surface and the 10 nm gold particle surface; (ii) IMF: overlapping on inner ER membrane surface and ER lumen, or located in the lumen at a distance ≤15 nm between inner ER membrane surface and gold particle surface; or (iii) Lumen: within the ER lumen, with a distance >15 nm between the 10 nm gold particle surface and the nearest inner ER membrane surface. […]

[2] = biological target: T2, gD-MAD-SRA-ID-GPI (construct d) (human, UniProt O14791 238-398, C-terminal GPI anchor); assay: flow cytometry, live CHO cells; 3.7D6 is the representative PFD antibody
T2 sequence: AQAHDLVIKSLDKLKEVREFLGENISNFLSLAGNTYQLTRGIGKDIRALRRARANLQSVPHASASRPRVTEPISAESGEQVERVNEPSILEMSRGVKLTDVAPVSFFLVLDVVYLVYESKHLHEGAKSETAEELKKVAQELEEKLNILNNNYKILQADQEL
Description: Stably transfected live (not fixed or permeabilized) CHO cells expressing the gD-iAPOL1-GPI constructs indicated in FIGS. 1A-1E after induction with 5 μg/ml dox for 48 h, showing differential antibody binding at 5 μg/ml. […] White histograms are Alexa488 anti-mouse or anti-rabbit secondaries only; grey histograms are the anti-APOL1 signals. A representative histogram for each category is shown: 3.7D6 for PFD; 3.3A8 for C-terminus of MAD, 3.5H9 for N-terminus of MAD; 3.1C1 for SRA-ID; 3.2D4 for multi-domain; 3.3F7 for conformational and 3.5B10 for FACS-negative (FACS-ve). The prefix 3 in the name of the antibodies denotes murine monoclonals from Method #3 (as shown in Example 1 below); other antibodies (not illustrated here) starting with the number 4 are murine monoclonals derived from mice additionally boosted with SRA-ID protein; and prefix 5-named antibodies are rabbit monoclonals from Method #5 (Table 2A; and Example 2). […] The Sigma polyclonal (HPA018885, raised to aa 263-387) and the Epitomics rabbit monoclonal (EPR2907(2), raised to an undisclosed peptide) are SRA-ID binders. […]
Cells were harvested with 5 mM EDTA in PBS, washed once with growth media and twice with PBS. […] Signals were read in a FACSCalibur3 (Becton Dickinson), with the exception of FIG. 8A and FIG. 14, which used a FACSCelesta, and data was analyzed using FlowJo v8.4.5.

[3] = biological target: T1, iAPOL1-G0 in podocytes (EIK variant, …); assay: flow cytometry, iAPOL1-G0 podocytes, 1 µg/ml
Description: APOL1 KO (black line) is completely negative, overlapping with Alexa488 anti-mouse secondary alone (grey line) as expected. A representative histogram from 3-4 experiments is shown.
Cells were harvested with 5 mM EDTA in PBS, washed once with growth media and twice with PBS. Approximately 0.5×10⁶/m1 of cells resuspended in PBS were incubated with anti-APOL1 antibodies for 1 h on ice. Following two PBS washes, 2 μg/ml of Alexa488 anti-mouse or anti-rabbit (Invitrogen A11029 and A21206, respectively) was used for 1 h on ice for detection. Cells were washed twice in PBS and resuspended in PBS with 1 μg/ml propidium iodide. Signals were read in a FACSCalibur3 (Becton Dickinson), with the exception of FIG. 8A and FIG. 14, which used a FACSCelesta, and data was analyzed using FlowJo v8.4.5. Mean fluorescence intensities were plotted in PRISM v7 after subtraction of secondary antibody alone background. For low pH experiments, cells were incubated with the antibodies in the presence of PBS pH 7.0 or PBS pH 5.5 for an hour on ice and detected with secondary antibodies at neutral pH.

binding result [1]: binds
B1: antibody 3.6E10 (antibody, V domains shown)
VH: QVQLQQSGAELAKPGASVKMSCKASGYIFTSYYLHWVKQRPGQGLEWIGYINPNTGYTEYTQNFKDRATLTADKSSSTAYMQLTSLTSEDSAVYFCVNGNPFVYWGQGTLVTVSA
VL: DIVMTQSPSSLTVTTGEKVTMTCRSSQSLLNSGNQKNYLTWFQQKPGQPPKLLIYWTSTRYSGVPDRFTGSGSGTDFTLTISSVQAEDLAVYYCQNDYSYPLTFGAGTKLEIKR
notes: Mouse mAb, cloned as murine IgG2a LALAPG

binding result [2]: no binding (tested: 5 µg/ml)
binding result [3]: binds
B2: antibody 3.7D6 (antibody, V domains shown)
VH: QIQLVQSGPDLKKPGETVKISCRTSGYAFTNYGVNWVKQAPGKGLKWMGWINTNTGQTTYAEEFRGRFAISLETSASTAFLTISNLKNEDSATYFCARLIYDGDYISSDFWGQGTTLTVSS
VL: DIQMTQSPDSLSASVGETVTITCGASENIYGALNWYQRKQGKSPQLLIYGATNLADGMSSRFSGSRSGRQYSLKISSLHPDDVATYYCQNALSMPYTFGGGTKLEIKR
notes: Mouse mAb, cloned as murine IgG2a LALAPG; those versions are not written separately; also called PFD antibody 3.7D6
